What all share (format): cell-based
Assay [1] concerns GYPB gene. Description: Indels editing in GYPB gene using Cas9 and blunting enzymes. Conditions: cultured mammalian cells, Cas9 + GYPB sgRNA + blunting enzyme; for percentage of +1 insertion mutations: Cas9 and sgRNA alone 10.5%, FIGS. 13A-13H. The procedure: To test for the efficiency of inducing indels in a target gene using Cas9 and blunting enzymes, Cas9 and GYPB targeting sgRNA were co-transferred into cultured mammalian cells in combination with DNA polymerase μ (POLM), EXOG, T4 DNA polymerase (T4pol), DNA polymerase λ (POLL), MGME1, RecJ exonuclease (RecJ) or Nuclease S1 (nucS). Cas9 and sgRNA alone served as the negative control. The occurrence of indels for the control and each of the combinations was measured.

The test system of assay [2] is PCSK9 exon 12. Description: Indels editing in PCSK9 gene using Cas9 and blunting enzymes. Conditions: HEK293T cells, Cas9 + PCSK9 exon 12 sgRNA + blunting enzyme; for percentage of +1 insertion: Cas9 and sgRNA alone 14.4%; for percentage of +1 insertion / percentage of −1 deletion: FIGS. 11A-11H; for percentage of −1 deletion: Cas9 and sgRNA alone 4.3%; for +1 insertion frequency: control 9.4%, FIGS. 12A-12B. The procedure:
To test for the efficiency of inducing indels in a target gene using Cas9 and blunting enzymes, Cas9 and PCSK9 exon 12 targeting sgRNA were co-transferred into cultured mammalian cells in combination with DNA polymerase μ (POLM), EXOG, T4 DNA polymerase (T4pol), DNA polymerase λ (POLL), MGME1, RecJ exonuclease (RecJ) or Nuclease S1 (nucS). Cas9 and sgRNA alone served as the negative control. The occurrence of indels for the control and each of the combinations was measured. HEK293T cells were used.
Results for each of the combinations are presented in FIGS. 11A-11H and comparisons between the control and blunting enzymes are presented in FIGS. 12A-12B.

Assay [3] relates to TPH2 exon 9. Description: Indels editing in TPH2 gene using Cas9 and blunting enzymes. Conditions: cultured mammalian cells, Cas9 + TPH2 sgRNA + blunting enzyme; for percentage of +1 insertion mutations: Cas9 and sgRNA alone 0%, FIGS. 14A-14H. How it is done: To test for the efficiency of inducing indels in a target gene using Cas9 and blunting enzymes, Cas9 and TPH2 targeting sgRNA were co-transferred into cultured mammalian cells in combination with POLM, EXOG, T4 polymerase, DNA polymerase λ (POLL), MGME1, RecJ exonuclease (RecJ) or Nuclease S1 (nucS). Cas9 and sgRNA alone served as the negative control. The occurrence of indels for the control and each of the combinations was measured.

The results in this text go back to patent US12146152B2, “Systems, methods, and compositions for correction of frameshift mutations” (Massachusetts Institute of Technology, priority 2019, dated 2024).

As to “POLM: DNA polymerase μ, DSB-end blunting enzyme co-transferred with Cas9 and sgRNA (AIYLVEPRMGRSRRAFLTGLARSKGFRVLDA)”, the entries for the “percentage of +1 insertion mutations” value in assay [1] and in assay [3] were 13.7% and 12.5%, respectively. Moreover, the “percentage of +1 insertion” value in assay [2] is reported as 19.6%.

B1: MGME1: single-strand DNA specific nuclease, blunting enzyme co-transferred with Cas9 and sgRNA (protein)
chain: LQQTMTKQQVFLLERWKQRMILELGEDGFKEYTSSFHVCDHVYMKNLARDVFLQGKRFHEALESILSPQETLKERDENLLKSGYIESVQHILKDVSGVRALESAVQHETLNYIGLLDCVAEYQGKLCVIDWKTSEKPKPFIQSTFDNPLQVVAYMGAMNHDTNYSFQVQCGLIVVAYKDGSPAHPHFMDAELCSQYWIKWLLRLEEYTEKKKNQNIQKPEYSE
As for B1, in assay [2], the “percentage of −1 deletion” value was determined as 6.35%.

B2: POLL: DNA polymerase λ, DSB-end blunting enzyme co-transferred with Cas9 and sgRNA (protein)
chain: CLQERRLVDVAGFSIFIPSRYLDHPQPSKAEQDASIPPGTHEALLQTALSPPPPPTRPVSPPQKAKEAPNTQAQPISDDEASDGEETQVSAADLEALISGHYPTSLEGDCEPSPAPAVLDKWVCAQPSSQKATNHNLHITEKLEVLAKAYSVQGDKWRALGYAKAINALKSFHKPVTSYQEACSIPGIGKRMAEKIIEILESGHLRKLDHISESVPVLELFSNIWGAGTKTAQMWYQQGFRSLEDIRSQASLTTQQAIGLKHYSDFLERMPREEATEIEQTVQKAAQAFNSGLLCVACGSYRRGKATCGDVDVLITHPDGRSHRGIFSRLLDSLRQEGFLTDDLVSQEENGQQQKYLGVCRLPGPGRRHRRLDIIVVPYSEFACALLYFTGSAHFNRSMRALAKTKGMSLSEHALSTAVVRNTHGCKVGPGRVLPTPTEKDVFRLLGLPYREPAERDW
On to B2, for which the “percentage of +1 insertion mutations” value was 22.1% in assay [1] and 2.95% in assay [3]. Besides, in assay [2], the “percentage of +1 insertion” value stood at 39.55%. Moreover, in assay [2], the “+1 insertion frequency” value is given as 35.0%.

B3: RecJ: RecJ exonuclease, blunting enzyme co-transferred with Cas9 and sgRNA (protein)
chain: TVDNGISSHAGVEHARSLGIPVIVTDHHLPGDTLPAAEAIINPNLRDCNFPSKSLAGVGVAFYLMLALRTFLRDQGWFDERNIAIPNLAELLDLVALGTVADVVPLDANNRILTWQGMSRIRAGKCRPGIKALLEVANRDAQKLAASDLGFALGPRLNAAGRLDDMSVGVALLLCDNIGEARVLANELDALNQTRKEIEQGMQIEALTLCEKLERSRDTLPGGLAMYHPEWHQGVVGILASRIKERFHRPVIAFAPAGDGTLKGSGRSIQGLHMRDALERLDTLYPGMMLKFGGHAMAAGLSLEEDKFKLFQQRFGELVTEWLDPSLLQGEVVSDGPLSPAEMTMEVAQLLRDAGPWGQMFPEPLFDGHFRLLQQRLVGERHLKVMVEPVGGGPLLDGIAFNVDTALWPDNGVREVQLAYKLDINEFRGNRSLQIIIDNIWPI
With B3, the “percentage of −1 deletion” value in assay [2] came to 5.5%.

B4: EXOG: single-strand DNA specific nuclease, blunting enzyme co-transferred with Cas9 and sgRNA (protein)
chain: WSRGHMAPAGNNKFSSKAMAETFYLSNIVPQDFDNNSGYWNRIEMYCRELTERFEDVWVVSGPLTLPQTRGDGKKIVSYQVIGEDNVAVPSHLYKVILARRSSVSTEPLALGAFVVPNEAIGFQPQLTEFQVSLQDLEKLSGLVFFPHLDRTSDIRNICSVDTCKLLDFQEFTLYLSTRKIEGARSVLRLEKIMENLKNAEIEPDDYFMSRYEKKLEELKAKEQSGTQIRKPS
As for B4, in assay [2], the “percentage of −1 deletion” value is reported as 5.05%.

B5: T4pol: T4 DNA polymerase, DSB-end blunting enzyme co-transferred with Cas9 and sgRNA (protein, UniProt P04415 1-898, looked up)
DNA-directed DNA polymerase: MKEFYISIETVGNNIVERYIDENGKERTREVEYLPTMFRHCKEESKYKDIYGKNCAPQKFPSMKDARDWMKRMEDIGLEALGMNDFKLAYISDTYGSEIVYDRKFVRVANCDIEVTGDKFPDPMKAEYEIDAITHYDSIDDRFYVFDLLNSMYGSVSKWDAKLAAKLDCEGGDEVPQEILDRVIYMPFDNERDMLMEYINLWEQKRPAIFTGWNIEGFDVPYIMNRVKMILGERSMKRFSPIGRVKSKLIQNMYGSKEIYSIDGVSILDYLDLYKKFAFTNLPSFSLESVAQHETKKGKLPYDGPINKLRETNHQRYISYNIIDVESVQAIDKIRGFIDLVLSMSYYAKMPFSGVMSPIKTWDAIIFNSLKGEHKVIPQQGSHVKQSFPGAFVFEPKPIARRYIMSFDLTSLYPSIIRQVNISPETIRGQFKVHPIHEYIAGTAPKPSDEYSCSPNGWMYDKHQEGIIPKEIAKVFFQRKDWKKKMFAEEMNAEAIKKIIMKGAGSCSTKPEVERYVKFSDDFLNELSNYTESVLNSLIEECEKAATLANTNQLNRKILINSLYGALGNIHFRYYDLRNATAITIFGQVGIQWIARKINEYLNKVCGTNDEDFIAAGDTDSVYVCVDKVIEKVGLDRFKEQNDLVEFMNQFGKKKMEPMIDVAYRELCDYMNNREHLMHMDREAISCPPLGSKGVGGFWKAKKRYALNVYDMEDKRFAEPHLKIMGMETQQSSTPKAVQEALEESIRRILQEGEESVQEYYKNFEKEYRQLDYKVIAEVKTANDIAKYDDKGWPGFKCPFHIRGVLTYRRAVSGLGVAPILDGNKVMVLPLREGNPFGDKCIAWPSGTELPKEIRSDVLSWIDHSTLFQKSFVKPLAGMCESAGMDYEEKASLDFLFG
For B5, the “percentage of −1 deletion mutations” value in assay [1] (Cas9 and sgRNA alone 1.7%, FIG. 13D) stood at 9.05%. The “percentage of +1 insertion mutations” value in assay [1] came to 13.4%. Further, in assay [2], the “percentage of +1 insertion” value was determined as 36.75% and the “+1 insertion frequency” value is reported as 30.3%. Also, the “percentage of −1 deletion mutations” value in assay [3] (Cas9 and sgRNA alone 13.2%, FIG. 14D) is 36.7%.
